# Measurements as given in IntAct's records for PubMed 35512704.
# B1: Speckle-type POZ protein (Homo sapiens), O43791 (parent)
# chain: MSRVPSPPPPAEMSSGPVAESWCYTQIKVVKFSYMWTINNFSFCREEMGEVIKSSTFSSGANDKLKWCLRVNPKGLDEESKDYLSLYLLLVSCPKSEVRAKFKFSILNAKGEETKAMESQRAYRFVQGKDWGFKKFIRRDFLLDEANGLLPDDKLTLFCEVSVVQDSVNISGQNTMNMVKVPECRLADELGGLWENSRFTDCCLCVAGQEFQAHKAILAARSPVFSAMFEHEMEESKKNRVEINDVEPEVFKEMMCFIYTGKAPNLDKMADDLLAAADKYALERLKVMCEDALCSNLSVENAAEILILADLHSADQLKTQAVDFINYHASDVLETSGWKSMVVSHPHLVAEAYRSLASAQCPFLGPPRKRLKQS
# partner: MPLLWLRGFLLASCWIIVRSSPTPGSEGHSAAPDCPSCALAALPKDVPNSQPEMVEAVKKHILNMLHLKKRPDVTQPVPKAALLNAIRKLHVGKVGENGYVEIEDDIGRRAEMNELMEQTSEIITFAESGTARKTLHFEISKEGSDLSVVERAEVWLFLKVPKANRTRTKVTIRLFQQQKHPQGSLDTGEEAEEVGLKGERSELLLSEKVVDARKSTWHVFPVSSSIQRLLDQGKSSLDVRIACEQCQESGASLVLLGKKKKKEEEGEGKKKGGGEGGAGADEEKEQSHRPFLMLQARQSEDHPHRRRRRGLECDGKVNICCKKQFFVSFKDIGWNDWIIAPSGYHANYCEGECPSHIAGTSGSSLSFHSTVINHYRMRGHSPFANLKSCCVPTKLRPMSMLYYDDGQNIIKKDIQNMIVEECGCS
# B2: Speckle-type POZ protein (Homo sapiens), O43791 (parent)
# chain: B1 chain
# partner: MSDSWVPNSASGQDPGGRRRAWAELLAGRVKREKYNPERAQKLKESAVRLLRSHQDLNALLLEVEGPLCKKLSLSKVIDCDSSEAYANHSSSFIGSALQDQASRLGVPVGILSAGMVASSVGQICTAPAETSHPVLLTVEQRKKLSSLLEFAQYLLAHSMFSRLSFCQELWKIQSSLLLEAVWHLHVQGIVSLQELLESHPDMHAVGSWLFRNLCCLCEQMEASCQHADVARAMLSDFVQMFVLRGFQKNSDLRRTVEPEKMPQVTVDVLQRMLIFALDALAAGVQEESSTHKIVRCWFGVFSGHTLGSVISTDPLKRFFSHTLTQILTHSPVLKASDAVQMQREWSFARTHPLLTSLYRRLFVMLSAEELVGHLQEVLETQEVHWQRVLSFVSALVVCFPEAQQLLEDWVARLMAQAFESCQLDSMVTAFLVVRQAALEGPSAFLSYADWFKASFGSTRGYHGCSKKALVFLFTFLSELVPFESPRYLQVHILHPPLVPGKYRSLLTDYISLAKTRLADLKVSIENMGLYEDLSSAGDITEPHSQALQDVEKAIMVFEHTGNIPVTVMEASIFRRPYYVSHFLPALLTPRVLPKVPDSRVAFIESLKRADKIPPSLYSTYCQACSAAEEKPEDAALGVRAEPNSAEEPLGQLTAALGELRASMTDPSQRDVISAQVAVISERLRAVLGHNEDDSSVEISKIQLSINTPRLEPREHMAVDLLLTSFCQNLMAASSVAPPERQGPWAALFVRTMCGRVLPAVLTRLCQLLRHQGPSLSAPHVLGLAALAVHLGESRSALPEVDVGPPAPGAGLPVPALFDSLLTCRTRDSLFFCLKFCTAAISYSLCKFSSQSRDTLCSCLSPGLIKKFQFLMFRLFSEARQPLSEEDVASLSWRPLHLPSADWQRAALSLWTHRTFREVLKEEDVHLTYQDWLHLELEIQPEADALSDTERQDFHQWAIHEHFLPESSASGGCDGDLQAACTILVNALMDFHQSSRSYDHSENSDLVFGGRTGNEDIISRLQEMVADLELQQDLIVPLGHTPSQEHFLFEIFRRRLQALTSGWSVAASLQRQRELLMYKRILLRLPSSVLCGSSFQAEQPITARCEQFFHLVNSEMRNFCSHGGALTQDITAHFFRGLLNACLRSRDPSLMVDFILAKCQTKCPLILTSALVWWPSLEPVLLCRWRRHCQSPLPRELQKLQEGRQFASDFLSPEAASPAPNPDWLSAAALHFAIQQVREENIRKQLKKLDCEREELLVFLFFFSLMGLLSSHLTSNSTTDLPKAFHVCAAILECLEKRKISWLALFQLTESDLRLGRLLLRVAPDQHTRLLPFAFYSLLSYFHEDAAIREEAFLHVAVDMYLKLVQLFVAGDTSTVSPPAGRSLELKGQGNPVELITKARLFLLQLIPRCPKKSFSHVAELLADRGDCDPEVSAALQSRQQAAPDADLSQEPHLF
# B3: Speckle-type POZ protein (Homo sapiens), O43791 (parent)
# chain: B1 chain
# partner: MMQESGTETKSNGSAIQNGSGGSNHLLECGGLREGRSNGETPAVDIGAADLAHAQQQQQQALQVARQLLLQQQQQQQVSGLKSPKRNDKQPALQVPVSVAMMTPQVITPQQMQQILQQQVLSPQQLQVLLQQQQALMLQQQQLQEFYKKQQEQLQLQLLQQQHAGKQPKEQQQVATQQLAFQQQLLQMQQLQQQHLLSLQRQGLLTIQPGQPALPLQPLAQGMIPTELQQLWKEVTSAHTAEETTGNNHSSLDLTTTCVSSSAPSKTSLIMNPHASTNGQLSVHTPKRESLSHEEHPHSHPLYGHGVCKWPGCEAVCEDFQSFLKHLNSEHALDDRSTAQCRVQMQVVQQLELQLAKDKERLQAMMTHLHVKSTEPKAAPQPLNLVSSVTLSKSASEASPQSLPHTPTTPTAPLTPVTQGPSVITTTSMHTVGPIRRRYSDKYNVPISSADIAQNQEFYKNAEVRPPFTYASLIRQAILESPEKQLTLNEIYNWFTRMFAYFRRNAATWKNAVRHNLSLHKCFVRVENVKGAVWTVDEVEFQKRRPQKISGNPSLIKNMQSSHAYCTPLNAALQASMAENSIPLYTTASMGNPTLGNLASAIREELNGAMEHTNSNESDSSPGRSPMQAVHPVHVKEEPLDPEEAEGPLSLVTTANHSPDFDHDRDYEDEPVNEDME
# B4: Speckle-type POZ protein (Homo sapiens), O43791 (parent)
# chain: B1 chain
# partner: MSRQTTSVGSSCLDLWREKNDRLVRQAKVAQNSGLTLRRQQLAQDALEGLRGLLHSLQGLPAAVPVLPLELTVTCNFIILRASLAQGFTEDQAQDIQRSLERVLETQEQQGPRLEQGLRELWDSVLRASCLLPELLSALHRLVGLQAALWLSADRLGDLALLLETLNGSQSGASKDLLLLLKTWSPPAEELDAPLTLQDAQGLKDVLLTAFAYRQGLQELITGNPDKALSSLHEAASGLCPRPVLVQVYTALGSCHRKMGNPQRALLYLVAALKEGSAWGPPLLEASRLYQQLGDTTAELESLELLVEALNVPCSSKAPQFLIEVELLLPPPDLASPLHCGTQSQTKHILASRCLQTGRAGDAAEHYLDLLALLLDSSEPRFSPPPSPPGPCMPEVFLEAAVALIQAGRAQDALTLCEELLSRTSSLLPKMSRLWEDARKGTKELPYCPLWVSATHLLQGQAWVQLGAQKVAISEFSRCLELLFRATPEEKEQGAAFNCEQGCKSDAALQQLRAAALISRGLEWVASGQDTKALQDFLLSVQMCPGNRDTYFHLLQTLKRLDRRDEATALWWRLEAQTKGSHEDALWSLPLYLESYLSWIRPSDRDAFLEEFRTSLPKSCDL
# Variants of: B1
# Settings: with inhba_human INHBA
row,Variant,effect of a mutation on the interaction
1,F133L,with no effect

# Variants of: B1
# Settings: with inhba_human INHBA
# Remark: another data set of the same source
row,Variant,effect of a mutation on the interaction
1,F133V,with no effect

# Variants of: B1
# Settings: with inhba_human INHBA
# Remark: another data set of the same source
row,Variant,effect of a mutation on the interaction
1,Y87C,with no effect

# Variants of: B1
# Settings: with inhba_human INHBA
# Remark: another data set of the same source
row,Variant,effect of a mutation on the interaction
1,F102C,with no effect

# Variants of: B2
# Settings: with fanca_human FANCA
row,Variant,effect of a mutation on the interaction
1,F102C,with no effect

# Variants of: B2
# Settings: with fanca_human FANCA
# Remark: another data set of the same source
row,Variant,effect of a mutation on the interaction
1,F133L,with no effect

# Variants of: B2
# Settings: with fanca_human FANCA
# Remark: another data set of the same source
row,Variant,effect of a mutation on the interaction
1,Y87C,with no effect

# Variants of: B3
# Settings: with foxp1_human FOXP1, Q9H334
row,Variant,effect of a mutation on the interaction
1,Y87C,with no effect

# Variants of: B3
# Settings: with foxp1_human FOXP1, Q9H334
# Remark: another data set of the same source
row,Variant,effect of a mutation on the interaction
1,F102C,with no effect

# Variants of: B3
# Settings: with foxp1_human FOXP1, Q9H334
# Remark: another data set of the same source
row,Variant,effect of a mutation on the interaction
1,F133L,with no effect

# Variants of: B3
# Settings: with foxp1_human FOXP1, Q9H334
# Remark: another data set of the same source
row,Variant,effect of a mutation on the interaction
1,F133V,causing an interaction

# Variants of: B4
# Settings: with fancg_human FANCG
row,Variant,effect of a mutation on the interaction
1,Y87C,with no effect
